Here are results for six molecules from PMC7703624 (Proceedings of the National Academy of Sciences of the …, 2020).

By Kd is commonly meant the equilibrium constant for the complex coming apart. A lower Kd goes with higher affinity.

The target of test [1] is T1, ENAH EVH1 (Homo sapiens, UniProt Q8N8S7). As to the kind of experiment: other fluorescence titration.
Target sequence in this assay (Q8N8S7 whole entry): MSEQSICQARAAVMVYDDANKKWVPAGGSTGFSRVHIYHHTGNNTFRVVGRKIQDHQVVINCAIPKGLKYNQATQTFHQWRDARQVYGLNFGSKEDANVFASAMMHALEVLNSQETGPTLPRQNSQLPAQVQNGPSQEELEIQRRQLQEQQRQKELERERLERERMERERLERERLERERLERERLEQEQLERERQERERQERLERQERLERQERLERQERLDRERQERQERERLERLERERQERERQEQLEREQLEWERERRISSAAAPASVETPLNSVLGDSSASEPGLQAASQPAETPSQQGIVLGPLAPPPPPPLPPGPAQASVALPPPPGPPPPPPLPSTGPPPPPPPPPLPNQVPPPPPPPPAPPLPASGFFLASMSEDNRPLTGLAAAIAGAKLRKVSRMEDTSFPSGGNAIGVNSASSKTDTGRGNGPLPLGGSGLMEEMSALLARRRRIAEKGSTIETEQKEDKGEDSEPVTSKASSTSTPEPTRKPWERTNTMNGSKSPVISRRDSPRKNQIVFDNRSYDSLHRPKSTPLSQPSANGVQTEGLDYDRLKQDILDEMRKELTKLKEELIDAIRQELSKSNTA
The target in test [2] is T1, ENAH EVH1. As to the kind of experiment: Fluorescence titration. Type of test: binding.
For another test, the target named is Fyn SH3 (Homo sapiens, UniProt P06241). As to the kind of experiment: Pulldown of GST-Fyn SH3 from Jurkat cell lysate, displacement of ADAP. Type of test: binding. To be noted: Jurkat cell lysate 1 mg/ml, 50 µM active concentration.

Where a SMILES comes first, the peptide text is derived from it.

Fyn SH3, sequence (P06241 82-143 limits assumed): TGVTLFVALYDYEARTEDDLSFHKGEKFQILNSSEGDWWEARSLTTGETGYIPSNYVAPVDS

As for “2ΔC, Ac-SFE[2-Cl-Phe][ProM-2][ProM-1]-OEt (peptide)”, in the test with ENAH EVH1 [1], the Kd stood at 2900 nM.

Regarding “2ΔN, Ac-[2-Cl-Phe][ProM-2][ProM-1]TEDEL-NH2 (peptide)”, the Kd with ENAH EVH1 [1] was 330 nM.

As to `CCOC(=O)[C@@H]1CCCN1C(=O)[C@@H]1CCCN1C(=O)[C@@H]1CCCN1C(=O)[C@@H]1CCCN1C(=O)[C@H](Cc1ccccc1)NC(C)=O` [wt1, Ac–FPPPP–OEt] (Ac-FPPPP-OEt), on ENAH EVH1 [2], the Kd came out at 153000 nM.

On to Ac-RPLPPLP-NH2 [Ac–RPLPPLP −NH2], for which, on Fyn SH3, the “displacement of ADAP from bead-bound GST-Fyn SH3” value is recorded as “displaced ADAP”.

Molecule “chimeric peptide 2, Ac-SFE[2-Cl-Phe][ProM-2][ProM-1]TEDEL-NH2” came in with a Kd with ENAH EVH1 [1] of 150 nM.

The molecule Ac-SFEFPPPPTEDEL-NH2 [wt2, Ac-…-NH2] had a Kd with ENAH EVH1 [1] of 13000 nM.
